Our source for the stoichiometry N values is article PMC9908077.

What all share (experiment): cross-linking; 1 mM BMH (cysteine-specific) added to living transfected HEK293T cells in PBS/5 mM EDTA, 1 hr at room temperature in the dark, stopped with DTT; lysates on 3-8% Tris-Acetate gels, western blot with anti-NC antibody
Background: A western blot detects proteins with antibodies after separation by electrophoresis.

The target of assay [1] is CANC (N-terminally 3xHA-tagged CANC Gag fragment with the C-terminal SP2-p6 extension, from pCANC) (HIV-1 NL4-3).
Assay [2] has as its target GCN4pAA-SP1-NC (HIV-1 NL4-3).
Assay [3] deals with GCN4pII-SP1-NC (HIV-1 NL4-3).
The target of assay [4] is ccHex2-SP1-NC (HIV-1 NL4-3).

By stoichiometry N is commonly meant the number of molecules, sites or subunits per partner or assembly. With “CANC (N-terminally 3xHA-tagged CANC Gag fragment with the C-terminal SP2-p6 extension, from pCANC) (domain or fragment)”, the stoichiometry N in assay [1] lay within 8 to 10. On to GCN4pAA-SP1-NC, for which, in assay [2], the stoichiometry N is less than 6. Substance GCN4pII-SP1-NC had a stoichiometry N in assay [3] of less than 6. In assay [4], ccHex2-SP1-NC displayed a stoichiometry N of less than 6.
